Our source for the protein production values is a protein production outcome set (Wang et al. 2014).

The data set is described as follows: label from the status in PepcDB records.
As for “AIAEAKTLGIATPRKPVLSVSARKLKDNAADWHNLILKWDSLSDKGFTTASSIANLKVSLLSKEKVELESSSPASMEEEEKTNLDYDKGLEALCEELQAILDGLTKIQMKMEKLSSTTKGICELENYHYREESSRPPLFHTWPTAFFYEVSRRLSEAYKKELLLKHTIGAELAHTADRNLSLTYLSMWLHQPYIESNSKLQLESMLLETGHRAL”, the protein production entry was “failed”. For the sequence “MKILRRTITGAATGLLLALPGVALAGTTLRVASEEAFATPAKVAAQSALEHVEKTLPDATGGEVSVQLYPGGALGSEKELIKALADGTVDAMVLSPGNAAGIVPEVQLFSASYLFESYDHARAVIKDDAFFEALAQIIAEKQAGFQLAGIGLTGTRNYYSRSRAVETIEDLSGVKMRVMSSPTEFKVWSELGTLPTTIPAPEIYTSLQTGVVDAAESSLPAISGSKYYEVAPYISLTQHQFNLHLFLVSDIAMSRLSEGQQAAVLQAFREAGHIEIDEAIRLSDEVLAFLRERPGVTVTEVDTAPFAQKLRAVQDEVATGLGVEPLLEIIRSHGTQG”, the protein production result is “failed”. The result for “MFGAKKNNTKIIEQLEKKCNGLGDILRSIGNTMAVIEFTTDGVILEANQNFLTTMKYSLSEIKGKHHSMFCLPEVVNSSAYSDFWKDLRDGKARSGLFRRIAKGGIDVYLEANYLPISDNNGYVYKIIKFANDITQRHYEMLDLRNTIAAANRSMAIIEFKPDGTIITANENFLRAMDFNIDEIKGKHHSMFCDSNYRHSKDYVQFWEDLREGKFQSGKYIRYGRNNKKVYLEASYNPVKNDDGKIYKVIKFATDISEQVKKDQEKLRLISELAEKNDNLTQDGDRVIENTVSNVQNIADMMSQSSNLVSSLNQQSDEIKSIIQTISDIADQTNLLALNAAIEAARAGEHGRGFAVVADEVRNLAERTGHSVNEITTTINSIRNVTSQVVESIKSGLEDVNQSVELAKEARECMEKIRESSAEVAKAMS” reads “failed”; that for “MLIITYISACILFLVSFSHVYWAFGGNWGTNSVIPTKAGEKAFTPRAGMTLVIALLLSMAAIILLQQANIVHFAVPNVIIQVGSWICMIVFSIRVIGEFNYFGIFKRQKDTHFARMDTGLYIPLCAFLSLSFLLAIIL”, “failed”; that for “MEHREKCTRCGQCLEVCSRYEDLGVLDRLYGYLDGSSNIDSESLLRCLTCGLCISACPENLGIKPLISPSRQKWINENGLSERLEHHHHHH”, “failed”. For the sequence “MGHHHHHHENLYFQSHMTDFVELMNSMSSTFNSDCATSTAEGGTLLNLNLAEDKTLKWRNLANNQFASKEKKHKDKEEEERKEARNQEEIEDIKALLADVVDAAAVKLEEEEAQNAEKVEPHTKCEIEEEGRKEMEYDQDVAKQDSEMEKKQNGKATSITVKMES”, the protein production result is recorded as “not failed”. In the case of “MSDDPEDRMLGWDESVFRDEHVFEIDWLPETFKHRDTQMETLKYALRPAVRGSRPLNVIARGPPGTGKTTAVQILFDELTAQTDVKTVRVNCQMDSTRYAVFSRLFAEIFDYEPPSSGISFKKLFSQITDKLVEEDEVLVVALDDVNYLFYESEASDTLYSLLRAHEAHSGAKIGVICVSSDLELDTIDALDTRVQSVFRPEEVYFNPYGQAEIADILGERADRGFNEGVVGPTVLDRVAELTEEQGGDLRVGIDLLRRAGMNAEMRASRSVETEDVEAAYDKSKYVHLSRRLRELSDSETALVEVIAAHDGQQAGDIYDAFSEQTDLGYTRYSEIINKLDQLDIIDADYTNVEGRGRSRELTLNYDADAVLERL” it was “failed”; in that of “MTKHRWSPVSSPPSRKPENVQVINLLPVAAGIIAILLALSFFGQVGAALLAITLALILATALNPVARWLERWMPRPAAGALTVLLVVLALVLLGLVAVPPLVSQGSKLTSSLPTSIPELEAQINALIDRYPAINSVLTEASVHRLIQQAGSFAANAAKGLPNIVSTFVGGVFMGLVMLVMVVFVLSNPVPLVNGVLGAVPPRHRLPAARALAQILKQLGGWGRATVLVMLVTGSCTALGLMLLKVDNWLIFGILAALGELVPNIGPIVATIPSVLFAAADDPQKGLYVALFVLVFQQVSGFVLGPFLLGGAGKLHPLSVTVGVLLFGSVFGIVGAFLTVPFLIIIKAIYQEFYLQDAPDIPDAVAMALISGKVEEQLDREEEQREAIDGQLQAARDEELQRQLEEGDLDLAAVLEHPESEPGNETTVEHSQTVISPTAQNPEQK”, “failed”; in that of “MVQSAPASEIAALILRGFDDYREQFREITDGARARFEQAQWQEAQRASAQRINLYEEKVAETVAGLRAGLADSELLDVERWPIIKSAYIAQIDLRLDDELAETWFNSIFCGLFSHDNISDGTMFVHTTRPSLRAHARAPYTRTYRPGGDLRQALEKIFDDYRFDVPYDDRERDLERIDALLHSNLPDWVCKDPDLAIELIGSVFYRNKGAYLVGRLFTPDEQWPLVFPLLHREDHGIQFDTVITDEAEVSIIFSFTRSYFMVDVPVPAELVAFLKRLLPGKHLAELYTSIGFYKQGKSEFYRALINHLATTDDRFVMAPGVRGMVMSVFTLPGFNTVFKIIKDRFNPSKSVDHATVIQKYQLVKNHDRVGRLADTQQFADFRFPVSKFEPECLAELLEVAPSTVVMEGDVVLIRHCWTERRMTPLNIYLENASEAQTREALNDYGLAIKQLAAANIFPGDMLLKNFGVTRHGRVVFYDYDEICYLTEVNFRYIPEPRFPEDEMSSEPWYSVGPNDVFPEEFPRFLFVDLNQRRLFAKLHGNLYDAKYWQGLQEQIREGKVIDVFPYRRQETPEQLLG”, “failed”. Consider “MANNTTGFTRIIKAAGYSWKGLRAAWINEAAFRQEGVAVLLAVVIACWLDVDAITRVLLISSVMLVMIVEILNSAIEAVVDRIGSEYHELSGRAKDMGSAAVLIAIIVAVITWCILLWSHFG”, for which the protein production result is “failed”. For “MKNEVFFGEGMKVVAAAYPDLYDIIVKLNDTVFTGKTLDYKTQKLIAIGIVASRCDEVAIEKQMKSAMKELGITKEEIADVLRVVLLTSGMPAFTKAMKILEKL”, the protein production result is recorded as “not failed”.

“MPQIQSSHSNHFDFTIDTADRTKLLMSYLVVPTTANFNNVMHGGELLNLLDKVAYVCSTRYCAKGTVTLSVDGVTFKYPIPVGNLLTFLASINYVGNTSCEVGIKVLSEDIKTREITHTNSCYFTMVAVENGKPTPMPKYEPKTEVEIRRYEGALKRKEMRTRGYLKSGKHEGV”: the protein production result is reported as “failed”.

Consider “MSMESKSKRRSPPSSTLEEEVPGKTIHPEDPKITSKNFENPTKETSIQSPIKNSIKPSWNPEPKITRTSIWDIESAGGDSIQNDCQSECNVEDQGHEQEVTLETRIFSGTSDRIEPHRHYGVYLLRNRFDAIQLLTRNTSSSADDYGERRVISEYREMRCEFRVWSPFQSKLAAGIMGGVSDLHLQIGSKVLYLGAGFGRSVSHISDIVGDSGMVYAVEQIPWAGRQLTIMANRRSNIVPIVEDATMPYKYRYEVPACIDIIFADLPPSVLIRALMLNARHFLNPGGHFVAYLHSPTSQGVVFNKDSFAAERRLLKEKQLEPKEMVLLEPFKAGYAFVVGVYIRKDVSL”, for which the protein production entry is “failed”. For the sequence “MTLELLQAQAQNCTACRLMEGRTRVVFGEGNPDAKLMIVGEGPGEEEDKTGRPFVGKAGQLLNRILEAAGIPREEVYITNIVKCRPPQNRAPLPDEAKICTDKWLLKQIELIAPQIIVPLGAVAAEFFLGEKVSITKVRGKWYEWHGIKVFPMFHPAYLLRNPSRAPGSPKHLTWLDIQEVKRALDALPPKERRPVKAVSQEPLF”, the protein production result is given as “not failed”. The result for “MTPNYLDIAFLAVLGLFTLRGLFRGLVEEVAGLVGVIGGFWLANRHHADAAAYVGRVVEDPAWVGVLSYVVVFLGVLLVVSIVARIIRKLLVLSFAGWLDHLAGGAVGVAKGVIICSILLAVLMHFLPDASFVRDSRVIPHLAKVTSFIKGYLPQQIVN” reads “failed”; that for “MPVRTSQASQGNRGKGVGLGLALASAVAFGGSGVAAKPLIEAGLDPLHVVWLRVSGAALVMLPLAVRHRALLRRRPALLIGFGLLAVAGVQACYFAAISRIPVGVALLVEYLAPALVLGWVRFVQRRPVTRAAALGVVLAVGGLACVVEVWSGLGFDALGLLLALAAACCQVGYFVLSDQGSETGEDAPDPLGVIAFGLLIGALVLTVVARPWTMDWSVLGGRADMNGDSVPAALLLGWIVLIATVVAYVTGVLSVRRLSPQVAGVVACLEAVIATVLAWVLLGEHLSAPQIIGGAVVLVGAFIAQSSAPAKPSDGPVTGGGGAERQLSARGTAA”, “failed”; that for “MISHFGAPLIRYDPALQGHAVPQLDMKTFTRRQHRPRPLILAVGLGLGIALTAPLAAAQNAPSSQPWRDTALTADQRADRLLAQMTEDEKFQMLRSYLGLGTDKIPKPAGALGSAGYVPGIARLGIPAQQLADAGVGVTNPGGIRKGDYATAMPSVLSTASSWNRQLAYAGGKTMGRESWQQGFNVLLAGSVNLQRDPRNGRNFEYAGEDPLLAGTMVGESIRGVQSEHVLSTMKHFALNDMETRRNFHSAQIGEQAMHESDLLAFEIALKIGDPASVMCSYNKINGVYGCEHDYLLNQVLKQEWKYPGYVMSDWGGVHSGSKAALAGLDQESAGEVFDVAVFFDAPLRMAVSAGVVPRARFDDMVKRILRSLFAHGAFDYPTQRQPIDGKAGLLAAQHVAEAGSVLLRNEQAMLPVSQDVRRIAVIGGYADKGVMSGGGSSRVDVTINGGNAVPGITPTTWPGPVIIHPSSPLQALRAALPNAQIDYVDGKDRAAAARAAKAADVAIVFATQWATESVDLPDMRLPDNQDALIEAVAKANPKTTVVLETNGPVRMPWAERVPAVLQAWYPGIGGGEAIANLLTGTVNPSGHLPVTWPVDESQLPRPSIPGLGFKPAKPGEDTIDYAIEGANVGYKWFAAHKLTPRYPFGHGLSYTQFRMDGLRVEANGSQLTASFEVENIGQREGAAVPQLYVTLPDGHATPLRLIGWQKLTLKPGEKRSVQVVAEPKTLADFDAQARRWTIAAGTYRVQLARSASEPVQSAAVTLQAAQLP”, “failed”.

“MSAEFIDSLAVMLLALGMTTAIGGMYFLFSALGNEKRIEGLLMPAVGVGLFDFMSGFVMSFTWPLPSSYNMLFGDPLLMAGLLLMISAIAYYKHYDISSVSILLFFLGIYVIIEAVGIVNYHLESGDNLLAAMGLYIVDGIAAILSPIMYIDQKKGKIAYMIEAAILIIGTLIALFIGYTAIYGHLLDFIKYFP”: the protein production entry is “failed”.

On to “MSEHPKKVVLLDLDGTLTKSDPGIIGCVVKAFEEMGYPVPDDAELHRFIGPAISESMQRNGIPDDKLDEGVRIYRKYYADEAVFDDPNNPGQKVPGRLNNTIYQGIPEQLAKLRADGYYLAIASCKPQYQCIPICEHFHLDTMVDGIYGASEDNSRLDKDQVIRWAFQHIDFDENAGDKALMVGDRWTDADGAKACGLDCLGCGWGYAEPGELKAHGAYRILDSVDELAQAVEEYFA”, for which the protein production result is “not failed”. As to “MNSGTLLGKASISFSRPVYIQSCASVVGPKEGDGPLKNCFDMICDDPMFGEKKWEAAESAMQKEAAVLAIGKAGLTPDDIRFVFAGDLLAQTIASSFGIAEMGIPFFGLYGACSTMGESLSLGAIAVSAGYGHHILCATSSHFATAEKEFRFPLGYGCQRPLSATWTVTGSAACILSPEAPHPSEIVGSSLLRSTLGSVAITGITTGKVIDFGFRDSLNMGGCMAPAACDTIYRNFEDFGRSVNDYDAVLTGDLGVVGRQILLDLLKEKNIDLSSVHQDCGLLIYDNQKQDTHSGGSGCGCAASVLAAYILPRVVSGFWKRVLFVPTGAMLSKVSFNEGESVAGIAHGVVIEHISKETEV”, the protein production result was “failed”.
